{"source": "patent US11312781B2", "about": "“Antigen binding molecules that bind LIGHT” (Capella Bioscience Ltd., priority 2018, dated 2022)", "key": {"[1]": {"target": "T1, native trimeric LIGHT (Homo sapiens, UniProt O43557, K214E)", "T1 construct": "amino acids 74-240 LIGHT (R&D Systems, 664-LI-025); purchased R&D Systems 664-LI-025", "T1 sequence (O43557 74-240 K214E)": "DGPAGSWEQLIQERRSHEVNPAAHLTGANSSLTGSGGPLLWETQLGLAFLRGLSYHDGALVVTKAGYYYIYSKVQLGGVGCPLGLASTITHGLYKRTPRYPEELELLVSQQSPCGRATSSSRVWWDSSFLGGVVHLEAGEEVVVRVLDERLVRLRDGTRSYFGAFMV", "experiment": "Binding ratio of mAbs bound to LIGHT by native mass spectrometry", "conditions": "LIGHT incubated 1:5 molar ratio (protein:antibody)", "description": "The LIGHT protein (R&D Systems 664-LI-025) was solubilised in PBS buffer at a final concentration of 4 μM, whereas the mAbs were maintained at 20 μM in PBS. The samples were buffer exchanged into ammonium acetate pH 7.4 at different concentrations via a column with a cut-off of 40 kDa prior to mass spectrometry optimisation. […] Samples were stored at 4° C. and were used within one week. The antibodies were diluted to 1 μM prior to MSanalysis. For complex formation the LIGHT protein was incubated with each antibody separately in 1:5 ratio on ice and native mass measurements were performed 30 min after incubation.\nNano electrospray ionization measurements were performed using a Q Exactive hybrid quadrupole-Orbitrap mass spectrometer (Thermo Fisher Scientific) modified for the transmission and detection of high m/z ions. […] Elevated pressure was applied in the front optics and mass spectra were recorded at optimized collision energy. […] Data were analysed with Xcaliber software and deconvoluted manually.\nNative mass spectroscopy was utilised to determine the ratio of mAb bound to native trimeric LIGHT. The measured mass of 3B04 (IgG4) was 147256±0.7 Da and the F19 anti-LIGHT mAb, (IgG4 mAb from EP2292663) was 147364±6.6 Da. […] Two major populations of the light protein were recorded with measured masses of 68 kDa and 71 kDa. […]"}, "[2]": {"target": "T2, wild type and mutated membrane LIGHT (Homo sapiens, UniProt O43557, T191A)", "T2 construct": "The full length LIGHT gene was synthesized by GeneArt (ThermoFisher Scientific); expressed in transfected cells; host or cells: HEK293FF, transient, pcDNA 3.1(+)", "T2 sequence (O43557 whole entry T191A)": "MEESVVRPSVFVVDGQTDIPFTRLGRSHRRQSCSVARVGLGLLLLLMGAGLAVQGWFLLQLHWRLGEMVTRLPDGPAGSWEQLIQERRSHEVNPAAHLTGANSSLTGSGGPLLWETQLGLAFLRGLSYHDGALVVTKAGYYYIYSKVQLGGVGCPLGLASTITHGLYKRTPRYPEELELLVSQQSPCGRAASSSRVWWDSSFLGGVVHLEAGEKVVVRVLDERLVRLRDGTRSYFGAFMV", "experiment": "Alanine scanning mutagenesis of membrane LIGHT and flow cytometry (HEK293FF cells)", "type": "binding", "conditions": "aa mutation T191A, SEQ ID NO. 138", "description": "(§1) The full length LIGHT gene was synthesized by GeneArt (ThermoFisher Scientific) and cloned into the mammalian expression vector pcDNA 3.1(+). The following Ala mutations were introduced into the LIGHT gene: 30 single amino acid alanine substitutions from F57A to E86A; 2 single amino acid alanine substitutions; G188A, R189A; one serine substitution, A190S; 17 single amino acid alanine substitutions; T191A to V207A and 10 four amino acid alanine substitutions, 60-63, 64-67, 68-71, 72-75, 76-79, 80-83, 84-87, 88-91, 92-95 and 96-99. Constructs were reconstituted according to manufacture instructions, using DEPC-treated and sterile filtered water. Competent TOP10 E. coli cells were transformed with 100 ng of each construct and a single colony from each construct was picked and used to inoculate 10 ml of LB/carb100/glu2% medium and grown overnight at 37° C., 200 rpm. The extraction of the construct DNA was performed using the Qiagen QIAprep Spin Miniprep Kit (250) and the concentration was determined by measuring the O.D. at 260 nm in a spectrophotometer.\n(§2) HEK293FF cells were cultured in Freestyle™293 expression medium (ThermoFisher scientific cat. no. 12338018) supplemented with 2 mM L-Glutamine. The day of transfection the cells were seeded in a 24-well plate at 0.6×10^6 cells/well. Lipofectamine 2000 (ThermoFisher scientific), 3 μl, was mixed with 50 μl OptiMEM medium (GIBCO) and then added to 50 μl Opti-MEM medium containing 3 ug plasmid DNA and incubated for 20 min at RT to form DNA-Lipofectamine 2000 complexes which were then added to the HEK293FF cells and incubated at 37° C., 5% CO2 for 24 hours. For each construct, in duplicate, 0.60×10^6 cells/well were used in a 96 well round bottom plate. Cells were centrifuged for 3 minutes at 300×g at 4° C., the supernatant discarded and the cells washed with 150 μl FACS buffer (0.5% FBS in phosphate buffered saline). This process was repeated 3 times. For each construct, […] cells/well were incubated with anti-LIGHT antibodies at the EC50 concentration and with positive controls of anti-LIGHT mAb MAB664 (R&D Systems), mAb F19 (EP2292663) or LTBR-Fc (R&D Systems), in a final volume of 50 μl/well for 30 min at 4° C., with shaking. The wells were washed 3 times as above and 50 μl/well of goat anti-human IgG FITC (1:1500 dilution in FACS buffer, SIGMA F9512-2ML) or goat anti-mouse APC (1/500 dilution in FACS buffer, BDBioscience 550826), as appropriate, was added to the wells and incubated for 30 min at 4° C. protected from the light, with shaking. The cells were then washed as above, resuspended in 100 μl of FACS buffer and binding of the antibodies to the constructs was measured using flow cytometry and a total of 10,000 cells were acquired for each sample. Controls of buffer and secondary antibody only as well as HEK293FF non transfected cells were also used.\n(§3) All of the mAbs of this invention show a similar profile in that their epitope is located at amino acids 188-197 of LIGHT. […] The epitope of the mAbs of this invention defined by alanine scanning mutagenesis are residues 188-197 of LIGHT. This is visually depicted in FIG. 8 utilising a 3D visualisation of the LIGHT trimer from the crystal structure of LIGHT from Liu et al. (Structure 22: 1252-62; 2014). This would result in the mAbs binding to the “tip” of the LIGHT trimer and explaining the 1:1 binding. The impact of this epitope would result in […] less dosing of mAb 3B04 being required to neutralise membrane LIGHT compared to, for example, mAbs F19 and F23 (of EP2292663) which bind both soluble and membrane LIGHT equally and bind LIGHT in the ratio 3:1."}, "[3]": {"target": "T3, wild type and mutated membrane LIGHT (Homo sapiens, UniProt O43557, W198A)", "T3 construct": "The full length LIGHT gene was synthesized by GeneArt (ThermoFisher Scientific); expressed in transfected cells; host or cells: HEK293FF, transient, pcDNA 3.1(+)", "T3 sequence (O43557 whole entry W198A)": "as the sequence (O43557 whole entry T191A) above, with A191T, W198A counted along it", "experiment": "Alanine scanning mutagenesis of membrane LIGHT and flow cytometry (HEK293FF cells)", "type": "binding", "conditions": "aa mutation W198A, SEQ ID NO. 145", "description": "as §1, §2, §3"}, "[4]": {"target": "T4, wild type and mutated membrane LIGHT (Homo sapiens, UniProt O43557, V196A)", "T4 construct": "The full length LIGHT gene was synthesized by GeneArt (ThermoFisher Scientific); expressed in transfected cells; host or cells: HEK293FF, transient, pcDNA 3.1(+)", "T4 sequence (O43557 whole entry V196A)": "as the sequence (O43557 whole entry T191A) above, with A191T, V196A counted along it", "experiment": "Alanine scanning mutagenesis of membrane LIGHT and flow cytometry (HEK293FF cells)", "type": "binding", "conditions": "aa mutation V196A, SEQ ID NO. 143", "description": "as §1, §2, §3"}}}
{"molecule": "3B04: parental mouse anti-membrane LIGHT antibody, VL SEQ ID NO 1, VH SEQ ID NO 5; tested as chimeric human IgG4 mAb (antibody, listed as Homo sapiens, V domains shown) VH: QVQLQQPGAELVRPGASVTLSCKASGYTFTDYEMHWVKQTPVHGLEWIGEIDPETGDTAYSQKFKGKATLTADKSSSTAYMEFRSLTSEDSAVYYCSRETDYFFDYWGQGTTLTVSS VL: DIQMTQTPASLSASVGETVTITCGASENIYGALNWYQRKQGKSPQLLIYGATNLADGMSSRFSGSGSGRQYSLKISSLHPDDFATYYCQNVLTTPWTFGGGTKLEIKR", "values": [{"measurement": "Stoichiometry of mAb bound to native trimeric LIGHT (antibody:LIGHT trimer)", "setting": "[1]", "result": "one antibody per one LIGHT protein"}]}
{"molecule": "3D12: parental mouse anti-membrane LIGHT antibody, VL SEQ ID NO 41, VH SEQ ID NO 45; tested as chimeric human IgG4 mAb (antibody, listed as Homo sapiens, V domains shown) VH: QVQLQQPGAELVRPGASVTLSCKASDYTFTDSEIHWVKQTPVHGLEWIGEIDPETGGTAYNQKFKGKATLTADKSSSTAYMELRSLTSEDSAVYYCSRETDYFFDYWGQGTTLTVSS VL: DIQMTQSPASLSASVGETVTITCGASENIYGALNWYQRKQGKSPQLLIYGATNLADGMSSRFSGSGSGRQYSLKISSLHPDDVATYYCQNVLSTPWTFGGGTKLEIKR", "values": [{"measurement": "Binding to membrane LIGHT construct as a percentage of the WT binding", "setting": "[2]", "result": 3, "unit": "%"}, {"measurement": "Binding to membrane LIGHT construct as a percentage of the WT binding", "setting": "[3]", "result": 86, "unit": "%"}, {"measurement": "Binding to membrane LIGHT construct as a percentage of the WT binding", "setting": "[4]", "result": 78, "unit": "%"}]}
